Experimental findings from patent publication US6881545 (Takeda / Millennium, dated 2005) are described below.

No end group written: not given here.

This assay deals with T1, human pituitary-derived G protein-coupled receptor protein encoded by phGR3 (hGR3), expressed on CHO-19P2 / … (human, UniProt P49683 1-370).
T1 construct: CHO-19P2-9 is a monoclone of CHO-19P2 selected for a stronger response to 19P2-L31; also called full-length receptor protein; 19P2 receptor
T1 sequence: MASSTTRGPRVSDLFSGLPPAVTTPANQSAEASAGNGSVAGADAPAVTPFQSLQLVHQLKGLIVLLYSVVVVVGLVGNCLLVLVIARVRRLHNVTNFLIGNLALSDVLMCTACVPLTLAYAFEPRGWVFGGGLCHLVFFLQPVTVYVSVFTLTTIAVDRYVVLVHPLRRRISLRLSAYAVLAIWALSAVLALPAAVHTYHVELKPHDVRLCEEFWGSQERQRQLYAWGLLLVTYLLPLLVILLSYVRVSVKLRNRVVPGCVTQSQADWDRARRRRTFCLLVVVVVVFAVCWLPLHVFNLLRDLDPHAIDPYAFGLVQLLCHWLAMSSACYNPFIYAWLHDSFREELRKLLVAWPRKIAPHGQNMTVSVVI
Briefly: radioligand binding on live CHO-19P2-9 cells, 200 pM tracer, non-specific binding with 200 nM unlabeled 19P2-L31, filtration. The text has this: As receptor-expressing CHO cells, CHO-19P2-9; mono-clone of CHO-19P2, CHO-UHR-1, and mock CHO were used in this experiment. CHO-19P2-9 cells are ones selected from CHO-19P2 cells by ultradilution technique using 96-well microplate as clone which indicated stronger arachidonic acid metabolic-release promoting reaction by 19P2-L31. The mock CHO cells are ones for control which were transformed with expression vector pAKKO alone. These cells cultured in flasks for culturing tissues were harvested with 5 mM EDTA/PBS, and then resuspended in HBSS containing 0.05% BSA and 0.05% CHAPS at 0.5 ×10^7 cells/ml. […] The reaction mixture were diluted with 2 ml of an ice-cold beffer (50 mM Tris-HCl pH7.5 containing 5 mM EDTA, 0.05% BSA, and 0.05% CHAPS) and immediately filtered though glass filters GF/F (Whattman) which were pre-wetted with the buffer containing 0.3% polyethylenimine. The glass filters were subjected to γ-counting. Non-specific binding was determined in the presence of 200 nM unlabeled 19P2-L31.

B1: [^125I]-19P2-L31 (19P2-L31 radioiodinated with [^125I]-Bolton-Hunter Reagent) (peptide)
peptide: SRAHQHSMEIRTPDINPAWYAGRGIRPVGRF-NH2
modifications: also: radioiodinated with [125I]-Bolton-Hunter reagent, site not given here
notes: also called radioiodinated 19P2-L31; radioiodinated ligand polypeptide
On to B1, for which the binding result is listed as “binds”.
